Results: patent publication US20230257726A1

Target: SARS-CoV-2 spike protein on spike pseudotyped lentivirus particles or authentic SARS-CoV-2 (SARS-CoV-2) (UniProt P0DTC2)
Assay: cell-based or functional assay

## Wild type ACE2(614)-Fc (Fc fusion)
  IC50 (µg/ml), pseudovirus: 0.43 µg/mL
